Experiment [1] concerns the target human thrombin with His tag (human) (UniProt P00734). The experiment in a line: Biacore. For orientation: In SPR one partner is held on a chip, and binding of the other changes the refractive index at the surface.
The target in experiment [2] is human prothrombin with His tag (human) (UniProt P00734). Briefly: Biacore.
Experiment [3] concerns the target human thrombin with His tag (human) (UniProt P00734). The experiment in a line: Biacore; ratio of KD on pro-thrombin to KD on thrombin.
The target is the same in experiment [4]. Briefly: Biacore; reference h1601-008.
In experiment [5] the target is human prothrombin with His tag (human) (UniProt P00734). The experiment in a line: Biacore; reference h1601-008.

As to Ichorcumab (antibody), the Kd – broadly, the constant that tells how readily two partners part at equilibrium – in experiment [1] stood at 0.00257 µM; in experiment [2], 0.131 µM. Also, the Selective activity in experiment [3] is 51. Further, the Fold of Affinity relative to h1601-008 turned out to be 3 fold in experiment [4] and 0.6 fold in experiment [5].

Values taken from US20190315886A1.
